The Human Domainome abundance scans (Beltran et al. 2025)
± gives the uncertainty stated by the source.

B1: Peripheral plasma membrane protein CASK, residues 488 to 569; numbered along this chain, O14936 (parent)
chain: VRLVQFQKNTDEPMGITLKMNELNHCIVARIMHGGMIHRQGTLHVGDEIREINGISVANQTVEQLQKMLREMRGSITFKIVP

Variants of: B1
Assay: abundance fitness (aPCA) (normalised: wild type 0, dead -1); higher = more abundant; growth selection in yeast, the domain comes from the species named
Details: Homo sapiens

Abundance fitness: each site, then its substitutions
V57: P -0.041 ± 0.027 | Q -0.8 ± 0.051 | L -0.126 ± 0.024 | C -0.046 ± 0.031 | W -0.854 ± 0.047 | Y -0.578 ± 0.072 | F -0.42 ± 0.053 | K -0.745 ± 0.052 | T 0.027 ± 0.026 | A -0.061 ± 0.021 | H -0.818 ± 0.096 | I 0.007 ± 0.063 | E -0.965 ± 0.048 | G -0.758 ± 0.028 | S -0.158 ± 0.025 | D -0.915 ± 0.076 | R -0.973 ± 0.038 | N -0.809 ± 0.11 | M -0.079 ± 0.035
A58: C -0.042 ± 0.036 | G -0.01 ± 0.021 | F -0.087 ± 0.057 | N -0.076 ± 0.053 | K 0.053 ± 0.035 | E 0.017 ± 0.027 | M -0.038 ± 0.041 | V -0.025 ± 0.023 | I 0.02 ± 0.053 | P -0.327 ± 0.04 | L -0.052 ± 0.027 | H -0.075 ± 0.049 | D -0.037 ± 0.039 | W -0.104 ± 0.028 | T -0.017 ± 0.031 | S -0.035 ± 0.028
T61: K -0.054 ± 0.035 | A -0.084 ± 0.024 | S -0.029 ± 0.025 | M -0.294 ± 0.039 | E -0.037 ± 0.037 | R -0.095 ± 0.022 | Q -0.047 ± 0.031 | N 0.011 ± 0.038 | C -0.129 ± 0.031 | I -0.642 ± 0.071 | L -0.41 ± 0.029 | F -0.457 ± 0.058 | G -0.015 ± 0.023 | W -0.853 ± 0.051 | V -0.329 ± 0.025 | H -0.074 ± 0.041 | P -0.048 ± 0.03
I55: Q 0.035 ± 0.028 | W -0.074 ± 0.026 | Y -0.061 ± 0.053 | V -0.035 ± 0.024 | S -0.033 ± 0.026 | R 0.007 ± 0.02 | T -0.003 ± 0.028
K67: A -0.022 ± 0.028 | S -0.038 ± 0.029 | V 0.002 ± 0.026 | T 0.001 ± 0.032 | Y -0.064 ± 0.047 | G -0.014 ± 0.024 | M -0.029 ± 0.034 | I -0.06 ± 0.051 | N 0.003 ± 0.057 | W -0.119 ± 0.032 | E 0.009 ± 0.032 | H 0.029 ± 0.057 | Q -0.054 ± 0.042 | C 0.013 ± 0.035 | D 0.02 ± 0.038 | F -0.023 ± 0.052 | P -0.292 ± 0.04
E71: H -0.002 ± 0.048 | Y 0.017 ± 0.051 | V -0.034 ± 0.025 | S -0.013 ± 0.029 | C -0.022 ± 0.034 | M -0.053 ± 0.034 | N -0.044 ± 0.063 | K 0.004 ± 0.037 | G 0.006 ± 0.022 | R -0.008 ± 0.022 | D 0.007 ± 0.046 | A -0.03 ± 0.025 | Q -0.051 ± 0.035 | I -0.036 ± 0.061 | T -0.036 ± 0.034 | F 0.013 ± 0.051 | L -0.074 ± 0.028
N59: R -0.09 ± 0.023 | F -0.016 ± 0.04 | H -0.006 ± 0.044 | Y -0.1 ± 0.047 | E -0.001 ± 0.028 | Q -0.09 ± 0.04 | G 0.02 ± 0.022 | M -0.099 ± 0.033 | W -0.157 ± 0.03 | C -0.114 ± 0.043 | V -0.164 ± 0.026 | S -0.045 ± 0.029 | D -0.038 ± 0.034 | T 0.003 ± 0.033 | K -0.068 ± 0.039 | I -0.324 ± 0.051 | A -0.047 ± 0.027
R70: N -0.024 ± 0.041 | C -0.029 ± 0.03 | P -0.229 ± 0.031 | Y -0.039 ± 0.049 | F 0.002 ± 0.042 | T -0.02 ± 0.03 | L 0 ± 0.024 | E 0.016 ± 0.028 | A 0.012 ± 0.024 | M -0.019 ± 0.031 | K -0.02 ± 0.031 | H 0.02 ± 0.04 | D 0.038 ± 0.035 | I -0.078 ± 0.038 | Q -0.023 ± 0.031 | G 0.006 ± 0.022 | S -0.015 ± 0.023 | V -0.018 ± 0.023
S56: H -0.09 ± 0.041 | W -0.275 ± 0.03 | V -0.064 ± 0.023 | T -0.028 ± 0.031 | G -0.02 ± 0.022 | E -0.018 ± 0.025 | N -0.032 ± 0.04 | I -0.155 ± 0.048 | M -0.102 ± 0.036 | F -0.229 ± 0.05 | Q -0.06 ± 0.029 | K 0.02 ± 0.033 | D 0.023 ± 0.032 | R -0.052 ± 0.021 | L -0.08 ± 0.026 | P 0.009 ± 0.031 | A 0.014 ± 0.023
M68: W -0.049 ± 0.025 | H -0.019 ± 0.04 | C -0.026 ± 0.033 | Q -0.014 ± 0.033 | F -0.028 ± 0.058 | L -0.032 ± 0.024 | I -0.068 ± 0.053 | P -0.647 ± 0.06 | Y -0.045 ± 0.051 | N -0.012 ± 0.051 | R 0.002 ± 0.021 | S -0.004 ± 0.026 | K 0 ± 0.031 | A -0.02 ± 0.025 | E -0.038 ± 0.029 | D 0.054 ± 0.04 | V -0.026 ± 0.024 | T -0.039 ± 0.03 | G -0.048 ± 0.024
E63: S -0.035 ± 0.028 | C -0.08 ± 0.041 | Q -0.009 ± 0.032 | N -0.043 ± 0.065 | A -0.048 ± 0.024 | V -0.098 ± 0.023 | G -0.027 ± 0.02 | F -0.023 ± 0.06 | W -0.123 ± 0.027 | L -0.092 ± 0.026 | I -0.108 ± 0.056 | M -0.13 ± 0.031 | R -0.121 ± 0.021 | Y -0.079 ± 0.071 | T -0.109 ± 0.03
M72: G -0.077 ± 0.02 | N -0.114 ± 0.046 | S 0.007 ± 0.026 | Q -0.05 ± 0.03 | H -0.009 ± 0.046 | I 0.036 ± 0.042 | K -0.072 ± 0.032 | E -0.085 ± 0.028 | F 0.039 ± 0.038 | C 0.005 ± 0.03 | D -0.182 ± 0.034 | A 0.022 ± 0.024 | T -0.022 ± 0.031 | V -0.008 ± 0.023 | P -0.244 ± 0.045 | W -0.047 ± 0.024 | R -0.14 ± 0.021 | Y -0.055 ± 0.041
L69: M -0.029 ± 0.033 | W -0.308 ± 0.029 | E -0.537 ± 0.058 | D -0.73 ± 0.073 | A -0.355 ± 0.026 | K -0.9 ± 0.074 | N -0.609 ± 0.086 | C -0.093 ± 0.035 | V -0.038 ± 0.027 | I -0.08 ± 0.055 | F -0.101 ± 0.048 | T -0.097 ± 0.027 | H -0.777 ± 0.097 | P -0.944 ± 0.086 | Y -0.357 ± 0.06 | G -0.443 ± 0.027 | Q -0.594 ± 0.045 | R -1 ± 0.049
R73: S 0.025 ± 0.025 | A -0.082 ± 0.025 | G -0.022 ± 0.021 | K 0.007 ± 0.033 | F -0.124 ± 0.059 | N 0.038 ± 0.058 | E -0.02 ± 0.027 | Y -0.157 ± 0.11 | C -0.011 ± 0.038 | I -0.04 ± 0.046 | M -0.077 ± 0.032 | Q -0.006 ± 0.031 | W -0.117 ± 0.027 | H -0.044 ± 0.055 | P -0.357 ± 0.041 | V -0.038 ± 0.024 | T -0.003 ± 0.031 | L -0.113 ± 0.026 | D -0.002 ± 0.041
Q64: N -0.025 ± 0.043 | C -0.004 ± 0.028 | D 0.007 ± 0.039 | G -0.064 ± 0.022 | E -0.008 ± 0.026 | T -0.025 ± 0.027 | W -0.093 ± 0.026 | Y 0.005 ± 0.038 | R -0.066 ± 0.021 | P -0.334 ± 0.032 | K -0.018 ± 0.029 | L -0.08 ± 0.023 | V -0.061 ± 0.021 | M -0.042 ± 0.028 | I 0.003 ± 0.042 | S -0.021 ± 0.023 | F 0.007 ± 0.037
G74: C -0.5 ± 0.066 | L -0.842 ± 0.044 | H -0.355 ± 0.061 | M -0.806 ± 0.077 | P -0.524 ± 0.046 | R -0.467 ± 0.027 | F -0.51 ± 0.078 | K -0.399 ± 0.042 | D -0.131 ± 0.043 | S -0.381 ± 0.033 | N -0.243 ± 0.056 | T -0.4 ± 0.04 | I -1.13 ± 0.2
L65: K -0.878 ± 0.081 | Q -0.33 ± 0.039 | G -0.817 ± 0.047 | M -0.057 ± 0.035 | C -0.048 ± 0.036 | F -0.23 ± 0.063 | E -0.889 ± 0.067 | P -1.02 ± 0.11 | H -0.402 ± 0.067 | N -0.318 ± 0.069 | S -0.183 ± 0.031 | W -0.049 ± 0.028 | T 0.006 ± 0.031 | A -0.166 ± 0.027 | V 0.025 ± 0.025 | R -0.449 ± 0.026 | D -1.07 ± 0.17
V62: D -0.031 ± 0.031 | A -0.007 ± 0.023 | F -0.238 ± 0.052 | I -0.025 ± 0.042 | L -0.018 ± 0.025 | N 0.01 ± 0.047 | S 0.003 ± 0.026 | M -0.052 ± 0.032 | P -0.032 ± 0.031 | T -0.007 ± 0.03 | H -0.131 ± 0.047 | R -0.1 ± 0.02 | C -0.044 ± 0.032 | K -0.114 ± 0.032 | E 0.015 ± 0.025 | Q -0.068 ± 0.034 | Y -0.172 ± 0.041 | G -0.067 ± 0.019 | W -0.154 ± 0.026
Q60: F 0.013 ± 0.041 | T -0.09 ± 0.029 | N 0.005 ± 0.043 | C -0.01 ± 0.033 | P -0.984 ± 0.072 | E -0.085 ± 0.026 | W -0.063 ± 0.027 | H -0.014 ± 0.042 | S -0.042 ± 0.025 | L -0.051 ± 0.025 | R -0.007 ± 0.021 | Y -0.022 ± 0.045 | V -0.118 ± 0.025 | M -0.047 ± 0.031 | A -0.045 ± 0.024 | D -0.154 ± 0.036
Q66: Y -0.038 ± 0.051 | C -0.055 ± 0.032 | S -0.012 ± 0.025 | T -0.012 ± 0.027 | G -0.038 ± 0.021 | L -0.094 ± 0.024 | I -0.094 ± 0.04 | N -0.016 ± 0.047 | F -0.236 ± 0.049 | R -0.104 ± 0.02 | P -0.521 ± 0.034 | E 0.018 ± 0.029 | V -0.141 ± 0.024 | K -0.128 ± 0.034 | W -0.228 ± 0.027 | A -0.04 ± 0.023 | H -0.043 ± 0.039 | M -0.012 ± 0.03
